US20250296963A1, “PEPTIDE HAVING ANTIMICROBIAL ACTIVITY” (priority 2022, published 2025)
Converted amounts (≈) assume the structure as drawn.

Columns and labels:
Assay type in all cases: cell-based
[1] = tested on: Botrytis cinerea; experiment: microbe, parasite or virus in culture; details: Botrytis cinerea DSMZ 877, PDA, 24° C., overnight
Description: (§1) The antimicrobial potential of the peptides described herein was compared with the activity of two other AMPs, TcAMP1 and TcAMP2 as discussed in WO1998027805, and antibiotics or fungicides. Comparative MIC assays were carried out against several bacterial and fungal species (Table 1).
(§2) Peptides according to SEQ ID N° 1, SEQ ID N° 2, SEQ ID N° 4, SEQ ID N° 6, and SEQ ID N° 7 were serially diluted in order to create a concentration sequence ranging from 0.39 μg/ml to […].
(§3) Pantoea, Staphylococcus, and Listeria were cultured in Trypticase Soy Broth (TSY) medium consisting of 1.7% casein peptone, 0.3% soy peptone, 0.25% glucose, 0.5% NaCl, 0.25% K2HPO4 and optionally 1.5% agar. Candida cells were cultured in Yeast Extract Peptone Dextrose (YPD) broth medium consisting of 1% yeast extract, 2% peptone, 2% glucose, and optionally 2% agar. Ceratocystis, Botrytis, Leptosphaeria, Mycosphaerella, Sclerotinia, and Verticillium were cultured in Potato Dextrose Agar (PDA) medium consisting of 2.4% Difco pre-mix broth and optionally 1.5% agar.
(§4) For the MIC assay bacteria and fungi were grown on agar plates with their respective media. Pre-cultures were prepared by inoculating either single bacterial colonies or small pieces of fungi in 5 ml of the respective liquid medium. The optical density (OD) at 600 nm was measured after one to five days and adjusted to an OD600 of 1. This cell suspension was used to prepare 1:500 dilutions, corresponding to approximately 2×10^6 microbial cells per ml.
(§5) To evaluate MICs, 96-well plates were prepared with the test antimicrobial peptides. Each well contained 100 μl microbial cell culture, 90 μl culture medium, and 10 μl peptide or control at the corresponding dilution. The plates were incubated overnight (ON) at the optimal growth temperature for each tested organism (Table 1). Results were visually evaluated and MICs determined based on growth or no-growth.
(§6) MIC assays were conducted in at least two independent replicates and with different peptide starting concentrations.

[2] = tested on: Candida albicans; experiment: microbe, parasite or virus in culture; details: Candida albicans DSM 1386, YPD, 30° C., overnight
Description: as §1, §2, §3, §4, §5, §6

[3] = tested on: Leptosphaeria maculans; experiment: microbe, parasite or virus in culture; details: Leptosphaeria maculans SF 70, PDA, 18° C., overnight
Description: as §1, §2, §3, §4, §5, §6

[4] = tested on: Mycosphaerella pinodes; experiment: microbe, parasite or virus in culture; details: Mycosphaerella pinodes DSMZ 62763, PDA, 30° C., overnight
Description: as §1, §2, §3, §4, §5, §6

[5] = tested on: Sclerotinia sclerotiorum; experiment: microbe, parasite or virus in culture; details: Sclerotinia sclerotiorum SF 79, PDA, 18° C., overnight
Description: as §1, §2, §3, §4, §5, §6

[6] = tested on: Verticillium dahliae; experiment: microbe, parasite or virus in culture; details: Verticillium dahliae SF 76, PDA, 28° C., overnight
Description: as §1, §2, §3, §4, §5, §6

[7] = tested on: Ceratosystis paradoxa; experiment: organism not typed; details: Ceratosystis paradoxa DSMZ 63054, PDA, 18° C., overnight
Description: as §1, §2, §3, §4, §5, §6

[8] = tested on: C. albicans; experiment: Peptide stability in bodily fluids (sheep blood, urine), MIC against C. albicans; details: Candida albicans
Description: In vitro experiments were conducted to test the behavior of the peptides as disclosed herein in blood, against C. albicans. C. albicans isolates from human blood were used (DSMZ 6569). The peptide according to the SEQ ID N° 1 was adjusted to a concentration of 1 mg/ml and mixed with sheep blood in equal parts. This mixture was incubated overnight at 30° C. To remove solid parts of the blood, the mixture was centrifuged and the obtained plasma supernatant was used for MICs.
In vitro experiments were conducted to test the behavior of the peptides as disclosed herein in urine, against C. albicans. The peptide according to the SEQ ID N° 1 was adjusted to a concentration of 1 mg/ml and mixed with synthetic urine or human urine in equal parts. These mixtures were incubated overnight at 30° C. To remove solid parts of the urine, the mixture was centrifuged and the obtained supernatant was used for MICs.

[9] = tested on: Listeria monocytogenes; experiment: microbe, parasite or virus in culture; details: Listeria monocytogenes DSM 102976, TSY, 37° C., overnight
Description: as §1, §2, §3, §4, §5, §6

[10] = tested on: Staphylococcus aureus MRSA; experiment: microbe, parasite or virus in culture; details: Staphylococcus aureus MRSA DSM 11729, TSY, 37° C., overnight
Description: as §1, §2, §3, §4, §5, §6

[11] = tested on: Pantoea agglomerans; details: Pantoea agglomerans JUB-CC-3253, TSY, 37° C., overnight
Description: as §1, §2, §3, §4, §5, §6

[12] = tested on: E. coli; experiment: MIC assay, E. coli
Description: as §1, §2, §4, §5, §6

[13] = tested on: several bacterial and fungal species; experiment: Comparative MIC assays, all tested organisms; details: bacterial species of Table 3, all tested species
Description: as §1, §2, §3
For the MIC assay bacteria and fungi were grown on agar plates with their respective media. […] The optical density (OD) at 600 nm was measured after one to five days and adjusted to an OD600 of 1. […]
To evaluate MICs, 96-well plates were prepared with the test antimicrobial peptides. […] Results were visually evaluated and MICs determined based on growth or no-growth. […]

[14] = tested on: Listeria monocytogenes; experiment: Cow milk assay, MIC against Listeria monocytogenes
Description: In vitro experiments were conducted to test the behavior of the peptides as disclosed herein in 3.5% fat cow milk, against Listeria monocytogenes. The peptide according to the SEQ ID N° 1 was adjusted to a concentration of 1 mg/ml and mixed with cow milk in equal parts. This mixture was incubated overnight at 37° C. To remove solid parts of the milk, the mixture was centrifuged and the obtained supernatant was used for MICs.

[15] = tested on: Erwinia amylovora; experiment: MIC assay in soil slurry
Description: In vitro experiments were conducted to test the behavior of the peptides as disclosed herein in soil slurry, against Erwinia amylovora. Soil slurry was generated by mixing 5 g soil in 20 ml water. This mixture was incubated for 1 h at an overhead shaker. The solid parts were removed by centrifugation and the obtained supernatant, referred to as soil slurry, was used for the MIC assay. Equal volumes of the peptide according to SEQ ID N°1 (8 mg/ml) and soil slurry were mixed and incubated overnight at 28° C. The mixture was used for MIC against Erwinia amylovora.

[16] = read-out: Minimal inhibitory concentration

Clc1ccccc1C(c1ccccc1)(c1ccccc1)n1ccnc1 [Clotrimazole]
MIC ([1]; DSMZ877, read-out: Minimal inhibitory concentration): 6.25 µg/mL (≈ 18.1 µM) | MIC ([2]; DSM1386, read-out: Minimal inhibitory concentration): 3.1 µg/mL (≈ 8.99 µM) | MIC ([3]; Plenodomus lingam, read-out: Minimal inhibitory concentration): 0.4 µg/mL (≈ 1.16 µM) | MIC ([4]; Didymella pinodes, DSMZ62763, read-out: Minimal inhibitory concentration): 3.1 µg/mL (≈ 8.99 µM) | MIC [5, 16]: 25 µg/mL (≈ 72.5 µM) | MIC [6, 16]: 1.56 µg/mL (≈ 4.52 µM) | MIC [7, 16]: 0.4 µg/mL (≈ 1.16 µM)

CC[C@H](C)C[C@H](C)CCCCCCCCC(=O)N[C@H]1C[C@@H](O)[C@@H](NCCN)NC(=O)[C@@H]2[C@@H](O)CCN2C(=O)[C@H]([C@H](O)CCN)NC(=O)[C@H]([C@H](O)[C@@H](O)c2ccc(O)cc2)NC(=O)[C@@H]2C[C@@H](O)CN2C(=O)[C@H]([C@@H](C)O)NC1=O [Caspofungin, caspofungin]
MIC [8, 16]: 0.5 µg/mL (≈ 0.457 µM)

Gentamycin
Minimal inhibitory concentration [9]: 0.4 µg/mL | Minimal inhibitory concentration [10]: 0.8 µg/mL | Minimal inhibitory concentration [11]: 1.56 µg/mL | Minimal inhibitory concentration [12]: 1 µg/mL

B1: SEQ ID No 2: Cocoa vicilin-derived antimicrobial peptide of the invention, recombinant or synthetic, mass of 15.3 kDa (peptide)
chain: YGRKQYERDPRQQYEQCQRRCESEATEEREQEQCEQRCEREYKEQQRQQEEELQRQYQQCQGRCQEQQQGQREQQQCQRKCWEQYKEQERGEHENYHNHK
modifications: peptide according to an embodiment of the invention
notes: Cocoa vicilin-derived antimicrobial peptide of the invention, recombinant or synthetic, mass of 15.3 kDa
Minimal inhibitory concentration [1]: 6.25 µg/mL | Minimal inhibitory concentration [2]: 3.1 µg/mL | Minimal inhibitory concentration [3]: 6.25 µg/mL | Minimal inhibitory concentration [9]: 7.1 µg/mL | Minimal inhibitory concentration [4]: 4.5 µg/mL | Minimal inhibitory concentration [5]: 19.3 µg/mL | Minimal inhibitory concentration [10]: 7.1 µg/mL | Minimal inhibitory concentration [6]: 3.1 µg/mL | Minimal inhibitory concentration [7]: 6.25 µg/mL | Minimal inhibitory concentration [11]: 1.9 µg/mL | Minimal inhibitory concentration [12]: 6.2 µg/mL | efficiency compared with the prior art peptides [13]: more efficient than the prior art peptides

B2: SEQ ID No 1: Antimicrobial peptide from the N-terminal region of Theobroma cacao (CCN-51) vicilin protein, 15 kDa spot; natural, recombinant or synthetic (peptide)
chain: YGRKQYERDPRQQYEQCQRRCESEATEEREQEQCEQRCEREYKEQQRQQEEELQRQYQQCQGRCQEQQQGQREQQQCQRKCWEQYKEQERGEHENYHNHKKN
modifications: Theobroma cacao
notes: Antimicrobial peptide from the N-terminal region of Theobroma cacao (CCN-51) vicilin protein, 15 kDa spot; natural, recombinant or synthetic
Minimal inhibitory concentration [1]: 6.25 µg/mL | Minimal inhibitory concentration [2]: 0.4 µg/mL | Minimal inhibitory concentration [3]: 3.75 µg/mL | Minimal inhibitory concentration [9]: 3.1 µg/mL | Minimal inhibitory concentration [4]: 1.9 µg/mL | Minimal inhibitory concentration [5]: 10.25 µg/mL | Minimal inhibitory concentration [10]: 3.1 µg/mL | Minimal inhibitory concentration [6]: 1.6 µg/mL | Minimal inhibitory concentration [7]: 5 µg/mL | Minimal inhibitory concentration [11]: 1.1 µg/mL | Minimal inhibitory concentration [12]: 3.1 µg/mL | Minimal inhibitory concentration ([8]; control, no bodily fluid (and reference drug)): 0.4 µg/mL | Minimal inhibitory concentration ([8]; peptide 1 mg/ml mixed with human urine in equal parts, overnight 30° C., supernatant): 5 µg/mL | Minimal inhibitory concentration ([8]; peptide 1 mg/ml mixed with sheep blood in equal parts, overnight 30° C., plasma supernatant): 25 µg/mL | Minimal inhibitory concentration ([8]; peptide 1 mg/ml mixed with synthetic urine in equal parts, overnight 30° C., supernatant): 2 µg/mL | Minimal inhibitory concentration ([14]; control, milk-free (and reference drug)): 3.1 µg/mL | Minimal inhibitory concentration ([14]; control, milk-free (and reference drug), listed as SEQ ID N° 1): 3.2 µg/mL | Minimal inhibitory concentration ([14]; peptide 1 mg/ml mixed with 3.5% fat cow milk in equal parts, overnight 37° C., supernatant): 80 µg/mL | concentration inhibiting bacteria growth (MIC) ([15]; control conditions): 15 µg/mL | concentration inhibiting bacteria growth (MIC) ([15]; peptide (8 mg/ml) mixed with equal volume of soil slurry, overnight 28° C.): 25 µg/mL | efficiency compared with the prior art peptides [13]: more efficient than the prior art peptides
